# Experimental data from patent US6001988, “High affinity nucleic acid ligands to lectins” (NeXstar Pharmaceuticals, Inc.).
# T1: E-selectin (ES-Rg) (Homo sapiens, UniProt P16581 P16581:22-556)
# T1 chain: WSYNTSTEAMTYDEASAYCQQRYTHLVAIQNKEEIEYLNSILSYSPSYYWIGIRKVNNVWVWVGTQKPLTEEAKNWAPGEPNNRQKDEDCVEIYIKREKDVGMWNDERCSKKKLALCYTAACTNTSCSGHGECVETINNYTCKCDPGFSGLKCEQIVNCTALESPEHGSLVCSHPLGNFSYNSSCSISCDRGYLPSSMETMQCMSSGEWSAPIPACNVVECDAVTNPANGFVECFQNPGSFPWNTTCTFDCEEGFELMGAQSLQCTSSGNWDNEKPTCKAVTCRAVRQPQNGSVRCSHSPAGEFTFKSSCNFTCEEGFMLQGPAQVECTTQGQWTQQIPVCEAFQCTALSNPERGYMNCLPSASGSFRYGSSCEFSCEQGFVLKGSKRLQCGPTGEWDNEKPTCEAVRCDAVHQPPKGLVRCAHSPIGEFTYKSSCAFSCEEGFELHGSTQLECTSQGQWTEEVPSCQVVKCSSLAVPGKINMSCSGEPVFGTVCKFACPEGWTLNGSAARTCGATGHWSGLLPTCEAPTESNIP
# T2: P-selectin (PS-Rg) (Homo sapiens, UniProt P16109 P16109:42-321)
# T2 chain: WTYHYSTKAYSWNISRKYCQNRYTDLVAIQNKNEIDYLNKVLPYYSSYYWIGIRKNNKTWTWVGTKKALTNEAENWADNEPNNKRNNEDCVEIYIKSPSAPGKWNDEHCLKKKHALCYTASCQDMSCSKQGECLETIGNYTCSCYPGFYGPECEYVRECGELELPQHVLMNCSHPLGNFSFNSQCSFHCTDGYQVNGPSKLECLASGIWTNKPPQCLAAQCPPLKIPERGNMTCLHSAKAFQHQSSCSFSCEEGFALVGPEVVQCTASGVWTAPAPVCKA
# T3: L-selectin (LS-Rg) (Homo sapiens, UniProt P14151 P14151:39-332)
# T3 chain: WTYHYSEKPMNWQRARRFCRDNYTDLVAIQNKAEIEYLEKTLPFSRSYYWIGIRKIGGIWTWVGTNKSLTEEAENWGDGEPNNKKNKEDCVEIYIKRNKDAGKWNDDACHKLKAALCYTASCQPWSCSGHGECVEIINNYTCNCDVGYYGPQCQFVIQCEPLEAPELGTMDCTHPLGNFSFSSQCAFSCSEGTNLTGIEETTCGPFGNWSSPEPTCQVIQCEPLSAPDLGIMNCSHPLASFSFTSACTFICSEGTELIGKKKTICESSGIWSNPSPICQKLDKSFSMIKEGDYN
# T4: wheat germ agglutinin (WGA) (Triticum vulgare, UniProt P10968 P10968:27-197)
# T4 sequence: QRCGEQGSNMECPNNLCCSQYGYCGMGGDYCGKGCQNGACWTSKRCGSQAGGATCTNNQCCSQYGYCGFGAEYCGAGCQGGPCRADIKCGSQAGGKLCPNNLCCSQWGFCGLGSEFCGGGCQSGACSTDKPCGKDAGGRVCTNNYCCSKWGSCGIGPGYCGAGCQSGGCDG
# T5: Ulex europaeus lectin UEA-II (Ulex europaeus, UniProt P22973 P22973:1-249)
# T5 sequence: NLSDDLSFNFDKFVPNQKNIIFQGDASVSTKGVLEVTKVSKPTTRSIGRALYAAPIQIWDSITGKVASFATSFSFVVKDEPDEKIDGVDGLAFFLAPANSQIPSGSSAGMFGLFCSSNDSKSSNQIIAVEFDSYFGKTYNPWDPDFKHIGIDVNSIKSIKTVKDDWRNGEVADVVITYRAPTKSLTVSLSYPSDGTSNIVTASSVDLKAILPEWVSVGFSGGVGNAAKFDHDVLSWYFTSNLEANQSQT
# B1: 206 (ssDNA)
# DNA: CTACCTACGATCTGACTAGCAGCGTTGTACGGGGTTACACACAACGATTTAGATGCTCTGCTTACTCTCATGTAGTTCC
# B2: 181 (ssDNA)
# DNA: CTACCTACGATCTGACTAGCCATCAAGGACTTTGCCCGAAACCCTAGGTTCACGTGTGGGGCTTACTCTCATGTAGTTCC
# B3: 112 (ssDNA)
# DNA: CTACCTACGATCTGACTAGCCGCATCCACATAGTTCAAGGGGCTACACGAAATATTGCAGCTTACTCTCATGTAGTTCC
# B4: 145 (ssDNA)
# DNA: CTACCTACGATCTGACTAGCCCCCGAAGAACATTTTACAAGGTGCTAAACGTAAAATCAGGCTTACTCTCATGTAGTTCC
# B5: 11.20 (ssRNA)
# RNA: GGGAAAAGCGAAUCAUACACAAGAUUGGUCGUACUGGACAGAGCCGUGGUAGAGGGAUUGGGACAAAGUGUCAGCUCCGCCAGAGACCAACCGAGAA
# modifications: 2'-NH2 all C and U
# B6: 111 (ssDNA)
# DNA: CTACCTACGATCTGACTAGCTACACAAGGTGCTAAACGTAGAGCCAGATCGGATCTGAGCGCTTACTCTCATGTAGTTCC
# B7: 137 (ssDNA)
# DNA: CTACCTACGATCTGACTAGCTACCCCTTGGGCCTCATAGACAAGGTCTTAAACGTTAGCGCTTACTCTCATGTAGTTCC
# B8: 201T3 (41-mer) (ssDNA)
# DNA: GTAACCAGTACAAGGTGCTAAACGTAATGGCTTCGGCTTAC
# B9: 179 (ssDNA)
# DNA: CTACCTACGATCTGACTAGCCACATGCCTGACGCGGTACAAGGCCTGGACGTAACGTTGGCTTACTCTCATGTAGTTCC
# B10: 201T1 (49-mer) (ssDNA)
# DNA: TAGCCAAGGTAACCAGTACAAGGTGCTAAACGTAATGGCTTCGGCTTAC
# B11: 214 (ssDNA)
# DNA: CTACCTACGATCTGACTAGCTGATGCGACTTTAGTCGAACGTTACTGGGGCTCAGAGGACAGCTTACTCTCATGTAGTTCC
# B12: 128 (ssDNA)
# DNA: CTACCTACGATCTGACTAGCAGGACCAAGGTGTTAAACGGCTCCCCTGGCTATGCCTCTTGCTTACTCTCATGTAGTTCC
# B13: 109 (ssDNA)
# DNA: CTACCTACGATCTGACTAGCCCACCGTGATGCACGATACATGAGGGTGTGTCAGCGCATGCTTACTCTCATGTAGTTCC
# B14: 139 (ssDNA)
# DNA: CTACCTACGATCTGACTAGCGGACAAGGCACTCGACGTAGTTTATAACTCCCTCCGGGCCGCTTACTCTCATGTAGTTCC
# Legend:
# E-selectin (ES-Rg) = target: T1, E-selectin (ES-Rg); assay: filter; room temp, Ca/Mg buffer; conditions: tags: extracellular domain fused to human IgG1 Fc (provided by A. Varki); chain copies: 2 (dimeric Fc chimera, inferred)
# Method: (§1) RNA was reverse transcribed into cDNA by AMV reverse transcriptase at 48° C. for 60 min in 50 mM Tris-Cl pH (8.3), 60 mM NaCl, 6 mM Mg(OAc)_2, 10 mM DTT, 100 pmol DNA primer, 0.4 mM each of dNTPs, and 0.4 unit/µl AMV RT. […] C) Nitrocellulose Filter Partitioning As described in SELEX Patent Applications, the nitrocellulose filter partitioning method was used to determine the affinity of RNA ligands for WGA and for other proteins. Filter discs (nitrocellulose/cellulose acetate mixed matrix, 0.45 µm pore size, Millipore; or pure nitrocellulose, 0.45 µm pore size, Bio-Rad) were placed on a vacuum manifold and washed with 4 ml of HBSS buffer under vacuum. Reaction mixtures, containing ^32P labeled RNA pools and unlabeled WGA, were incubated in HBSS for 10 min at room temperature, filtered, and then immediately washed with 4 ml HBSS. The filters were air-dried and counted in a Beckman LS6500 liquid scintillation counter without fluor. WGA is a homodimer, molecular weight 43.2 kD, with 4 GlcNAc binding sites per dimer. For affinity calculations, we assume one RNA ligand binding site per monomer (two per dimer). The monomer concentration is defined as 2 times the dimer concentration. The equilibrium dissociation constant, K_d, for an RNA pool or specific ligand that binds monophasically is given by the equation $$K_d=[P_f][R_f]/[RP]$$
# (§2) The affinity of representative cloned ligands for LS-Rg, ES-Rg, PS-Rg, CD22β-Rg and WGA was determined by nitrocellulose partitioning and the results shown in Table XIV. The ligands are highly specific for L-selectin.
# (§3) *Kds were determined at room temperature.
# P-selectin (PS-Rg) = target: T2, P-selectin (PS-Rg); assay: filter; room temp, Ca/Mg buffer; conditions: tags: lectin, EGF and first two CRD domains fused to human IgG1 Fc (provided by A. Varki); chain copies: 2 (dimeric Fc chimera, inferred)
# Method: as §1, §2, §3
# L-selectin (LS-Rg) [1] = target: T3, L-selectin (LS-Rg); assay: filter; room temp; 6.0 nM at 37 C; conditions: tags: human IgG2 Fc fusion (provided by A. Varki); label: 32P
# L-selectin (LS-Rg) [2] = target: T3, L-selectin (LS-Rg); assay: filter; room temp; 1.8 nM at 37 C; conditions: tags: human IgG2 Fc fusion (provided by A. Varki), label: 32P
# L-selectin (LS-Rg) [3] = target: T3, L-selectin (LS-Rg); assay: filter; room temp; 23.2 nM at 37 C; conditions: tags: human IgG2 Fc fusion (provided by A. Varki); label: 32P; hairpin
# L-selectin (LS-Rg) [4] = target: T3, L-selectin (LS-Rg); assay: filter; room temp; 8.8 nM at 37 C; conditions: tags: human IgG2 Fc fusion (provided by A. Varki); label: 32P; hairpin
# [5] = target: T4, wheat germ agglutinin (WGA); assay: filter; HBSS, room temp; printed as 11.2, SEQ 40; conditions: tags: free lectin, E Y Laboratories; label: 32P
# Method: (§4) The specifically eluted fraction was processed for use in the following round. Fractions eluted from immobilized WGA were heated at 90° C. for 5 minutes in 1% SDS, 2% β-mercaptoethanol and extracted with phenol/chloroform. RNA was reverse transcribed into cDNA by AMV reverse transcriptase at 48° C. for 60 min in 50 mM Tris-Cl pH (8.3), 60 mM NaCl, 6 mM Mg(OAc)_2, 10 mM DTT, 100 pmol DNA primer, 0.4 mM each of dNTPs, and 0.4 unit/µl AMV RT. […] C) Nitrocellulose Filter Partitioning As described in SELEX Patent Applications, the nitrocellulose filter partitioning method was used to determine the affinity of RNA ligands for WGA and for other proteins. Filter discs (nitrocellulose/cellulose acetate mixed matrix, 0.45 µm pore size, Millipore; or pure nitrocellulose, 0.45 µm pore size, Bio-Rad) were placed on a vacuum manifold and washed with 4 ml of HBSS buffer under vacuum. Reaction mixtures, containing ^32P labeled RNA pools and unlabeled WGA, were incubated in HBSS for 10 min at room temperature, filtered, and then immediately washed with 4 ml HBSS. The filters were air-dried and counted in a Beckman LS6500 liquid scintillation counter without fluor. […]
# The dissociation constants for representative members of families 1–9 and orphan ligands were determined by nitrocellulose filter binding experiments and are listed in Table III. […]
# [6] = target: T5, Ulex europaeus lectin UEA-II; assay: filter; HBSS, room temp; conditions: tags: E Y Laboratories; label: 32P
# Method: as §4, with “fluor. WGA is a homodimer, molecular weight 43.2 kD, with 4 GlcNAc binding sites per dimer. For affinity calculations, we assume one RNA ligand binding site per monomer (two per dimer).” for “fluor.”
# L-selectin (LS-Rg) [7] = target: T3, L-selectin (LS-Rg); assay: filter; room temp; 11.8 nM at 37 C; conditions: tags: human IgG2 Fc fusion (provided by A. Varki); label: 32P; hairpin
# L-selectin (LS-Rg) [8] = target: T3, L-selectin (LS-Rg); assay: filter; room temp; 0.65 nM at 37 C; conditions: tags: human IgG2 Fc fusion (provided by A. Varki); label: 32P; hairpin
# L-selectin (LS-Rg) [9] = target: T3, L-selectin (LS-Rg); assay: filter; apparently 37 C column; synthetic full-length 201 control 3.8 nM; conditions: tags: human IgG2 Fc fusion (provided by A. Varki); label: 32P; hairpin
# L-selectin (LS-Rg) [10] = target: T3, L-selectin (LS-Rg); assay: filter; room temp; 590 pM at 37 C; conditions: tags: human IgG2 Fc fusion (provided by A. Varki); label: 32P; hairpin
# L-selectin (LS-Rg) [11] = target: T3, L-selectin (LS-Rg); assay: filter; room temp; 8.4 nM at 37 C; conditions: tags: human IgG2 Fc fusion (provided by A. Varki); label: 32P
# L-selectin (LS-Rg) [12] = target: T3, L-selectin (LS-Rg); assay: filter; room temp; 9.6 nM at 37 C; conditions: tags: human IgG2 Fc fusion (provided by A. Varki); label: 32P
# L-selectin (LS-Rg) [13] = target: T3, L-selectin (LS-Rg); assay: filter; room temp; 6.8 nM at 37 C; conditions: tags: human IgG2 Fc fusion (provided by A. Varki); label: 32P; hairpin
binder,measurement,setting,value
B1,Kd,E-selectin (ES-Rg),100 nM
same,Kd,P-selectin (PS-Rg),600 nM
same,Kd,L-selectin (LS-Rg) [1],0.33 nM
B2,Kd,E-selectin (ES-Rg),37 nM
same,Kd,P-selectin (PS-Rg),1600 nM
same,Kd,L-selectin (LS-Rg) [2],0.084 nM
B3,Kd,L-selectin (LS-Rg) [3],0.3 nM
B4,Kd,L-selectin (LS-Rg) [4],0.92 nM
B5,Kd,[5],1.4 nM
same,Kd,[6],2200 nM
B6,Kd,E-selectin (ES-Rg),1200 nM
same,Kd,P-selectin (PS-Rg),840 nM
same,Kd,L-selectin (LS-Rg) [7],0.33 nM
B7,Kd,L-selectin (LS-Rg) [8],0.52 nM
B8,Kd,L-selectin (LS-Rg) [9],43 nM
B9,Kd,L-selectin (LS-Rg) [10],0.18 nM
B10,Kd,L-selectin (LS-Rg) [9],4.8 nM
B11,Kd,L-selectin (LS-Rg) [11],0.66 nM
B12,Kd,L-selectin (LS-Rg) [2]; hairpin,0.31 nM
B13,Kd,L-selectin (LS-Rg) [12],0.19 nM
B14,Kd,L-selectin (LS-Rg) [13],0.21 nM
